According to paper PMC8324494 (Cell Reports Medicine, 2021):

Legend:
[1] = target: endogenous GPC2 on high-GPC2-expressing neuroblastoma cell lines (Homo sapiens (Human)., UniProt Q8N158); experiment: flow cytometry on cells
[2] = target: murine Gpc2 on the surface of cells (Gpc2 pLenti CMV puro vector) (Mus musculus (Mouse)., UniProt Q8BKV1); experiment: flow cytometry on cells
[3] = target: human GPC2 on the surface of cells (GPC2 pLenti CMV puro vector) (Homo sapiens (Human)., UniProt Q8N158); experiment: flow cytometry on cells
[4] = target: GPC2 clone of the Membrane Proteome Array (Homo sapiens (Human)., UniProt Q8N158); experiment: flow cytometry on cells
[5] = target: GPC2^24-493 (fully glycanated) (Homo sapiens (Human)., UniProt Q8N158); experiment: BLI
[6] = target: GPC2^24-554 (fully glycanated) (Homo sapiens (Human)., UniProt Q8N158); experiment: BLI

Measured: binding result

endogenous GPC2 on high-GPC2-expressing neuroblastoma cell lines, sequence (Q8N158 24-554): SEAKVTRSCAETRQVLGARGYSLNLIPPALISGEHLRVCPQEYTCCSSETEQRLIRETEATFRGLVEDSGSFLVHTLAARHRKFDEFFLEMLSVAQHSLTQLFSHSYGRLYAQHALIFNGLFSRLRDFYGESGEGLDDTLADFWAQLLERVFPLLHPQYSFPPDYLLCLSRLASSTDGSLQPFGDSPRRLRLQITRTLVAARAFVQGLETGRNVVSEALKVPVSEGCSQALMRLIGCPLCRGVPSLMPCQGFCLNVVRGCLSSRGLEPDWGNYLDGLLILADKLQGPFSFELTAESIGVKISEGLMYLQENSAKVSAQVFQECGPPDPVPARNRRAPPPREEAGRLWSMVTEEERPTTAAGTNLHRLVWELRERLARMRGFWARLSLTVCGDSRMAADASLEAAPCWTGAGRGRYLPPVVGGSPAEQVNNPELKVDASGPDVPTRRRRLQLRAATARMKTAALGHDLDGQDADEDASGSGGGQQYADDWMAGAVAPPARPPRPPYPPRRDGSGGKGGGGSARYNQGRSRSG
GPC2^24-554 (fully glycanated), sequence (Q8N158 24-554): as above
GPC2 clone of the Membrane Proteome Array, sequence (Q8N158 24-554): as above
human GPC2 on the surface of cells (GPC2 pLenti CMV puro vector), sequence (Q8N158 24-554): as above
murine Gpc2 on the surface of cells (Gpc2 pLenti CMV puro vector), sequence (Q8BKV1 22-556): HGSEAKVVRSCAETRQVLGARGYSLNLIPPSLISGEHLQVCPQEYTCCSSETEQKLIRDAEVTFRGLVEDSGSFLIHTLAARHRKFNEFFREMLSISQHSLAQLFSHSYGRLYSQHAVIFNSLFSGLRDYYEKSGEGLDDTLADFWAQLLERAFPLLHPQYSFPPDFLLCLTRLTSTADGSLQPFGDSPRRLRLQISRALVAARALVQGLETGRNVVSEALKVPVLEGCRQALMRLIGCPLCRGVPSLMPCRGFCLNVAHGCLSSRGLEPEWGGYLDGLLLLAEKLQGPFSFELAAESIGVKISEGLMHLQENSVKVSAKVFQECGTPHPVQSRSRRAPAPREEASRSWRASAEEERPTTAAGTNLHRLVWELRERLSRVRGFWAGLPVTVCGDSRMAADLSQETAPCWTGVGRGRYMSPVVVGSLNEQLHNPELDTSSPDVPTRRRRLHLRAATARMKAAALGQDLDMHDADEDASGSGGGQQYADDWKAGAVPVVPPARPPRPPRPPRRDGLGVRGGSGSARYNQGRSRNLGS
GPC2^24-493 (fully glycanated), sequence (Q8N158 24-493): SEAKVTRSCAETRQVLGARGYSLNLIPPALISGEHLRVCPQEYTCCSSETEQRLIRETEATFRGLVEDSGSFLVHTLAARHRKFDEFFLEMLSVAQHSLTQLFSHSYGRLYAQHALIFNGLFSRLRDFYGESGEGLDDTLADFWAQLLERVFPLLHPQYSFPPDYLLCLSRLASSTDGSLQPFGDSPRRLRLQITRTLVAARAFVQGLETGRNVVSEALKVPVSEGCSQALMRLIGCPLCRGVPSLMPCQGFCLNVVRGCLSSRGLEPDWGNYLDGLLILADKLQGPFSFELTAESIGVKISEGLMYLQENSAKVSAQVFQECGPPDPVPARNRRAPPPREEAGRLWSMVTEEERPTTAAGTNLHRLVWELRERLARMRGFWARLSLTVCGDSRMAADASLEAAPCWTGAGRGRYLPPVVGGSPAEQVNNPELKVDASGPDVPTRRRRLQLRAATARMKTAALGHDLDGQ

B1: D3-GPC2-IgG1 (fully human GPC2 antibody, full-length human IgG1) (antibody, V domains shown)
VH: EVQLVETGGGVVKPGGSLRLSCAASGFTFSDYYMSWIRQAPGKGLEWVSYISSSGSTIYYADSVKGRFTISRDNSKNTLYLQMNSLRAEDTAVYYCARESGYDYVFDYWGQGTLVAVSS
VL: DIQMTQSPSTLSAFVGDRVTITCRASQSISSWLAWYQQKPGKAPKLLIYAASTLQSGVPSRFSGSGSGTEFTLTISSLQPEDFATYYCQQLNSYPITFGQGTRLEIK
binds: [1] | [2] | [3] | [4]

B2: D3-GPC2 antigen-binding fragment (D3-GPC2-Fab) (Fab, V domains shown)
VH: B1 VH
VL: B1 VL
binds: [5] | [6]
